Measurements taken from the nanobody polyreactivity screen of Harvey et al. (2022).

Assay: yeast display, Sf9 membrane polyspecificity reagent, FACS + sequencing; frameworks hold sequencing errors
In short: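 After 36–48 hours of galactose induction, yeast (Saccharomyces cerevisiae BJ5465) displaying a synthetic nanobody library were stained at 4 °C for 1 hour with 10% biotinylated, detergent-solubilized Sf9 membrane reagent. Streptavidin microbeads enriched the stained cells before FACS sorting into low and high (top ~1%) gates on anti-HA and streptavidin fluorescence. Each clone's polyreactivity label reflects its gate of origin.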

Sequence	polyreactivity (PSR sort gate)
QVQLVESGGGLVQAGGSLRLSCAASGSTFYLYAMGWYRQAPGKERELVAAITYGGGSTYYADSVKGRFTISRDNAKNTVYLQMNSLKPEDTAVYYCAARWLYWPRYTSLVYTHRDSWGQGTQVTVSA	low polyreactivity
QVQLVESGGGLVLAGGSLRLSCAASGSIFKNYAMGWYGQAPGKVRELVAAITRGTYYADSVKGRFTISRDNAKNTVYLQMNSLKPEDTAVYYCNREYWGRGYYRVRGEYDYWGQGTQVTVSS	low polyreactivity
QVQLVESGGGLVQAGGSLRLSCAASGFIFAYNAMGWYRQAPGKERELVAAISWSGGSTYYADSVKGRFTISRDNAKNTVYLQMNSLKPEDTAVYYCNAFSYYGARYDYWGLGTQVTVSS	high polyreactivity
QVQLVGSGGGLLQAGASLRLSCAASGRIFRAYAMGWYRQAPGKERELVAAISWRSGSTYYADSVKGRFTISRDNAKTTVYLQMNSLKPEDTAVYYCAAYTNRVVNGYGYWGQGTQVTVSS	high polyreactivity
QVQLVESGGGLVQAGGSLRLSCAASGRTFRWNAMVWYRQEPGKERELVARITSGGRTSYADSVKGRFTISRDNAKNTVYLQMNSLKPEDTAVYYCAARSIGYHWGYDYWGQGTQVTVSS	high polyreactivity
QVQLVESGGGLDQAGGSLRLICAASGSIFNGNAMGWYRQAPGKQRDLVAAITRRGGSTYYADSVKVRFTISRDNAKNTVYLQMNSLKPEDTAVYYCAAEDWLYKRPYKERIVQFYYWGQGTQVTVSS	low polyreactivity
QVQLVESGGGLVQAGGSLRLSCAASGFTFRKNAMGWYRQAPGKERELVAAISSGGGRTYYADSVKGRFTISRDNAKNTVYLQMNSLKPEDTAVYYCNAVRVVRLTFQDWISMDYWGQGTQVTVSS	high polyreactivity
QFQLVESGGGLVQAGGILRLSCADSGSTFRWYAMGWYRKAPGKERELVASITYSGASTYYADSVKGRFTISRDNAKNTVYLQMISLKPEDTAVYYCNAVFWFSYVSEYDYWGQGTQVTVSS	high polyreactivity
QVQLVESGGGLVQAGGSLRLSCAASGRTLVLNMGWYRPAPGKERELVATINSGGSTYYADSVKGRFTISRDNAKNTVYLQMNSLKPEDTAVYYCAVLSSDGKFDYWGQGTQVTVSS	low polyreactivity
QVQLVESGGGLVQAGGSLRLSCAASGSIFPVYAMGWYRQAPGKERELVAAISLRAGNTYYADSVKGRFTISRDNAKNTVYLQMNSLKPEDTAVYYCAVEWFRSTTIFDYWGQGTQVTVSS	high polyreactivity
QVQLVDSGGGLVQAGGSLRLSCAASGRILYANAMGWYRQAPGKERELVAAIRYSDDSTYYADSVKGRFTISRDNAKNTVYLHMNSLKPEDTAVYYCNADYLRWDIWYWHGYDYWGQGTQVTVSS	high polyreactivity
QVQLVESGGGLVQAGGSHRLSCAASGSIFRGYAMGWNRHAPRKERELVASITWSSGSTYYADSVKGRFTISRDNAKITVYLQMNSLKPEDTAVYDCAADVEYWSYEFNYWGQGTQVTVSS	low polyreactivity
QVQLVESGGGLVQAGGSLRLSCAASGRIFFWYVMGWYRQAPGKERELVAAISSGGRTYYADSVKGRFTISRDNAKNTVYLQMNSLKPEDTAVYYCNVEEYHVRADIGYSNYGYWGQGTQVTVSS	low polyreactivity
QVQLVESGGGLVQAGGSLRITCAASGSIFYSNVMGWSRPAPGKERELVARITDAGSTNYADSVKGRFTISRDYAKNTVYLQMYSLKPEDTAVYYCIARLVIYTYDYWGQGTQVTVSS	low polyreactivity
QVQLVESGGGLVQAGGSLRLSCAASGRTFVYYAMGWYRQAPGKERELVATISTTGGRTYYADSVKGRFTISRDNAKNTVYLQMNSLKPEDTAVYYCAADLYGAYGYWGQGTQVTVSS	low polyreactivity
QVQLVESGGGLVQAGGSLRLSCAASGRIFDNYGMGWYRQAPGKERELVAAISSGGGTYYADSVKGRFTISRDNAKNTVYLQMNSLKPEDTAVYYCAKRRVYDRSFGRYDYWGQGTQVTVSS	low polyreactivity
QVQLVESGGGLVQAGGSLRLSCAASGNILLFNAMGWYRQAPGKERELVATINQSGGRTYYADSVKGRFTISRDNAKNTVYLQMNSLKPEDTAVYYCAATYVYWTWGYDYWGQGTLVTVSS	low polyreactivity
QVQHVESGGGLVQAGGSLRLSCAASGFIFTAYAMGWYRQAPGKERELVAGIRSGSSTYYADSVKGRFTISRDNAMNTVYLQMNSLKPEDTAVYYCNAEKYNFIYAYEYWGQGTQVTVSS	low polyreactivity
QVQHVESGGGLVQAGGSLRLSCAASGRIIPGNAMGWYRQAPGKERDLVAAISYGGGSTYYADSVKGRFTISRDNAKNTVYLQMNSLKPEATAVYYCNAGWIRNYGFSIVTYDYWGQGTQVTVSS	low polyreactivity
QVQLVESGGGLVQAGGSLRLSCAASGRIFSGNVMGWYRQAPGKERELVAAISRSGGSTYYADSVKGRFTISRDNAKNTVYLQMNSLKPEDTAVYYCADVPTSNSFRSSFYYWGHGTQVTVSS	high polyreactivity
QVQLVESGGGLVQAGGSLRLSCAASGFTFYPYAMGWYRQAPGKERELVASISSRGGSRTYYADSVKGRFTISRVNEKNTVYLQMNSLKTEDSAVYYCAATYVGLYRGYFTLTYYYWGQGTPVTVSS	high polyreactivity
QVQLVESGGGLVQAGGSLRLSCAASGSTFVTNDMGWYRQAPGKERELVAAISSGTSTNYADSVKGRFTISRDNAKNTVYLQMNSLKPEDTAVYYCAADSLKRYDYWGQGTQVTVSS	low polyreactivity
